# Results as given in patent publication US20210069342A1 (LEGOCHEM BIOSCIENCES, published 2021).
# Tests used:
# [1] = molecular target: T1, human ROR1 expressed on the cell surface (human, UniProt Q01973 30-937); test: flow cytometry on H1437 cells (lung cancer), C2E3 IgG, FITC anti-human Fc detection
# T1 construct: whole, on cells; also called cell surface-expressed ROR1 antigen; ROR1 on JeKo-1, Mino, CHO-human ROR1, MC38-human ROR1 and other cancer cell lines
# Protocol: (§1) FACS analysis (FACSCalibur, BD Biosciences) was used to analyze the binding of the anti-ROR1 antibody of the present invention to ROR1 in the above cell lines.
# (§2) Specifically, the respective cell lines were dissociated and washed in PBS, then the numbers of cells were counted and adjusted to 2×10⁵ cells/200 PBS. Then, they were treated with 10 /mL of the antibody of clone name C2E3 of the ROR1 monoclonal antibodies prepared in Embodiment 3, and reacted for 1 hour at 4° C. After the reaction, the cells were washed in PBS, then FITC-marked constant region (Fc) specific antibody (Goat anti-human IgG FITC conjugate, Fc specific, Sigma, F9512, concentration 20 mg/ml) was suspended in 2 /1×10⁵ cells/200 PBS and reacted for 1 hour at 4° C. After reacting, the cells were washed with PBS and analyzed with the FACSCalibur equipment. The negative control was only treated with FITC-marked constant region (Fc) specific antibody. To compare the degree of ROR1 expression among the respective cancer cell lines, the quotient of dividing the shifted readings for the experimental group treated with the ROR1 monoclonal antibody (C2E3) of the present invention by the shifted readings for the control group (MFI Ratio: MFI of anti-ROR1/MFI or 2nd Ab) is indicated.
# [2] = molecular target: T1, human ROR1 expressed on the cell surface; test: flow cytometry on HCC1187 cells (breast cancer), C2E3 IgG, FITC anti-human Fc detection
# Protocol: as §1, §2
# [3] = molecular target: T1, human ROR1 expressed on the cell surface; test: flow cytometry on Jurkat cells (T cell leukemia), C2E3 IgG, FITC anti-human Fc detection
# Protocol: as §1, §2
# [4] = molecular target: T2, recombinant human ROR1-His (Sino Biological, 13968-H08H) (human, UniProt Q01973 30-406); test: BLI (Octet), ROR1-His on Anti-Penta-His or AR2G biosensor, IgG 30 to 0.021 nM, 1:1 fit
# T2 construct: extracellular domain; Bought protein; also called ROR1-HIS protein; not shown: His tag
# Protocol: A 96-well black microplate (greiner bio one) was mounted on a biosensor tray case, and 200 10×KB or DW was added to each of 8 wells. Then Anti Penta His biosensors or 8 AR2G biosensors (ForteBio, USA) were inserted to hydrate for 10 minutes. 600 of the assay samples were diluted 2-fold or 3-fold to the appropriate assay concentrations, using 1×KB or 10×KB to 30 to 0.021 nM. To immobilize the antigen, recombinant human ROR1-His (Sino Biological, 13968-H08H) was diluted to 1 /ML with 10×KB or Sodium Acetate pH5 buffer. Immobilization was fixed at a threshold of 0.3 nm in the loading step. The association assay was carried out for 3 to 10 minutes, and the dissociation assay was carried out for 20 minutes. According to the Octet program template, the buffer was placed in a new 96-well black microplate according to order. As Baseline1, 200 10×KB or DW was placed. Then 200 each of 1 /mL of the antigen to be loaded, the ROR1-HIS protein, was added. As Baseline2, 200 10×KB or 1×KB was placed. Then to each well 30 to 0.021 nM of the diluted antibody and 200 each of 10×KB buffer or 1×KB corresponding to a reference blank was added. The temperature of the test plate was fixed at 30° C. After all of the samples were introduced, the equipment was started, and after the assay was completed, results were uploaded to the Octet Analysis 90 software, with KD values analyzed through 1:1 fitting. By obtaining KD values through the Octet assay method, it was confirmed that the anti-ROR1 antibody had strong binding potential to ROR1 antigen.
# [5] = molecular target: T1, human ROR1 expressed on the cell surface; test: flow cytometry on MC38-human ROR1 cells, IgG titrated, FITC anti-human Fc detection, MFI ratio to 2nd Ab alone; log axis whose first tick is printed 0
# From the text: For this experiment, using cell lines (FIG. 5 and FIG. 7, respectively) transiently (CHO-human ROR1, CHO-human ROR2, CHO-mouse ROR1) or stably (MC38-human ROR1) transfected with ROR1 gene to achieve artificial over-expression of ROR1 protein, an ROR1-expressing cell line (JeKo-1, Mino) (FIG. 6), a non ROR1-expressing cell line (MCF7) (FIG. 6) and a FACSCalibur (BD Biosciences) device was used to measure the degree to which anti-ROR1 antibody and ROR1 were bound, as follows. […] JeKo-1, Mino, CHO-human ROR1, CHO-mouse ROR1 and MC38-human ROR1 are all cell lines which express human ROR1 or mouse ROR1.
# Specifically, after dissociating each cell line and washing in PBS, the number of cells was counted and adjusted to 2×10⁵ cells/200 PBS. Then the respective ROR1 monoclonal antibodies prepared in Embodiment 3 were diluted 5 times from 10 /mL or 10 /mL, then reacted for 1 hour at 4° C. After the reaction, the cells were washed in PBS, then FITC-marked constant region (Fc) specific antibody (Goat anti-human IgG FITC conjugate, Fc specific, Sigma, F9512, concentration 20 mg/ml) was suspended in 2 /1×10⁵ cells/200 PBS and reacted for 1 hour at 4° C. As for identification of the degree of expression of the transiently over-expressed human ROR1, human ROR2 and mouse ROR1, a commercially available FACS analysis antibody (anti-ROR1: R&D Systems, FAB 2000G, anti-ROR2: R&D, FAB20641P) was used. After reacting the cells were washed in PBS and analyzed using a FACSCalibur device. The negative control (2nd Ab) was only treated with FITC-marked constant region (Fc) specific antibody. The shifted readings for the respective experimental groups treated with ROR1 monoclonal antibody were compared against the shifted reading for the control group (MFI Ratio: MFI of anti-ROR1/MFI of 2nd Ab).
# [6] = molecular target: T1, human ROR1 expressed on the cell surface; test: flow cytometry on SNU-1750 cells (gastric cancer), C2E3 IgG, FITC anti-human Fc detection
# Protocol: as §1, §2
# [7] = molecular target: T1, human ROR1 expressed on the cell surface; test: flow cytometry on MDA-MB-231 cells (breast cancer), C2E3 IgG, FITC anti-human Fc detection
# Protocol: as §1, §2
# [8] = molecular target: T1, human ROR1 expressed on the cell surface; test: flow cytometry on HCC1143 cells (breast cancer), C2E3 IgG, FITC anti-human Fc detection
# Protocol: as §1, §2
# T1 sequence (Q01973 30-937): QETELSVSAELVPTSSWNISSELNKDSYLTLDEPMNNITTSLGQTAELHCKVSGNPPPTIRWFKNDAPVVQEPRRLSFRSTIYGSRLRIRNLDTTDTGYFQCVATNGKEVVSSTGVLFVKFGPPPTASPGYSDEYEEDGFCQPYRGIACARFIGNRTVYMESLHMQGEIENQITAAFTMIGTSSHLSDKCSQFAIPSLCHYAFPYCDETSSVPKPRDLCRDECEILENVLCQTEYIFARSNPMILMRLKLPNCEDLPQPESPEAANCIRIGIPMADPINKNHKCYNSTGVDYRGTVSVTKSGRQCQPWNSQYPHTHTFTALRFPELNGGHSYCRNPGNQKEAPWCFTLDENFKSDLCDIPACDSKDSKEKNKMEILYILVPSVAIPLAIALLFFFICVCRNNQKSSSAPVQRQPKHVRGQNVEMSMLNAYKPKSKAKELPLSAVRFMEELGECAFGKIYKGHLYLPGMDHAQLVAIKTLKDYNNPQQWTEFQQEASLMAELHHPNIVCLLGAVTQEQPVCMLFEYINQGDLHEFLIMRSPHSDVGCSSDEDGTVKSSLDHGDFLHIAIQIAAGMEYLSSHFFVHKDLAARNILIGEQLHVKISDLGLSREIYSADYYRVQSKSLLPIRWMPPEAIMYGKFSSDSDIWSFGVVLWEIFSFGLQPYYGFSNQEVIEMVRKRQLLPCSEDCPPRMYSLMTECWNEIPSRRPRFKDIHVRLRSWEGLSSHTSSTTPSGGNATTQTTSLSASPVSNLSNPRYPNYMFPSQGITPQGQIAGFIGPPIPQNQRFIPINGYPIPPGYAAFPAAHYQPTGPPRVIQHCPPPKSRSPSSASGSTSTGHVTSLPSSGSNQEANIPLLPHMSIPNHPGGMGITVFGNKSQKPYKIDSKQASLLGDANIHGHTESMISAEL
# T2 sequence (Q01973 30-406): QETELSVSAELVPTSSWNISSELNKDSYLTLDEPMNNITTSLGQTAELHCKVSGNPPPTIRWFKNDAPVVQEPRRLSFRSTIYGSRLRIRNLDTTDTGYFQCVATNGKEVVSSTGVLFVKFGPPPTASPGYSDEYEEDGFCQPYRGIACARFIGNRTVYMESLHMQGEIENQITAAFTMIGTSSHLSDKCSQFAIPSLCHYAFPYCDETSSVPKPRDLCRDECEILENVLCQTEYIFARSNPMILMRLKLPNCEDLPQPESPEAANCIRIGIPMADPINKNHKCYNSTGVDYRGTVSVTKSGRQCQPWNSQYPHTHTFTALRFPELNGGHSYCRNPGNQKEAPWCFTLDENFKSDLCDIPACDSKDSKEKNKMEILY
binder,measurement,setting,value
"anti-ROR1 IgG antibody C2E3 (antibody, V domains shown, Full IgG form (human IgG1 constant region, lambda light chain), expressed in CHO-S cells) VH: EVQLLESGGGLVQPGGSLRLSCAASGFTFSNYAMSWVRQAPGKGLEWVSSISHNSGSTYYADSVKGRFTISRDNSKNTLYLQMNSLRAEDTAVYYCAKFISARKSLGRSYSNGMDVWGQGTLVTVSS VL: QSVLTQPPSASGTPGQRVTISCTGSSSNIGSNDVTWYQQLPGTAPKLLIYADSKRPSGVPDRFSGSKSGTSASLAISGLRSEDEADYYCGTWDYSLSGYVFGGGTKLTVLG",Mean Fold Ratio (MFI of anti-ROR1 / MFI of 2nd Ab),[1],4.1
same,Mean Fold Ratio (MFI of anti-ROR1 / MFI of 2nd Ab),[2],9.3
same,Mean Fold Ratio (MFI of anti-ROR1 / MFI of 2nd Ab),[3],1.7
same,kon,[4],5.46e+06 M⁻¹ s⁻¹
same,EC50 (read off the curve),[5],~0.1 µg/mL
same,Mean Fold Ratio (MFI of anti-ROR1 / MFI of 2nd Ab),[6],3.9
same,Mean Fold Ratio (MFI of anti-ROR1 / MFI of 2nd Ab),[7],8.8
same,Mean Fold Ratio (MFI of anti-ROR1 / MFI of 2nd Ab),[8],3.2
